Series [1] deals with human galectin-3 CRD. Conditions: fold greater affinity than lactose; cited from earlier work.
A short description of series [2]: in vivo. As to conditions: C57BL/6, mouse, iv, total radioactivity. The arrangement: species or system C57BL/6 mice. From the text: As part of the ex vivo biodistribution studies—after PET imaging—the sacrifice of the experimental animals occurred followed by the gamma counter-based measurement of the radioactivity of the organs and tissues (Figure 7).
Significance level between the [^68Ga]Ga-DOTAGA-LacN(NAP) and the two other investigated radiotracers: p ≤ 0.01 (*).

Series [3] relates to subcutaneous B16-F10 tumors. Conditions: mouse, in vivo.
Experimental: (§1) After in vivo PET imaging (100 min post injection), control and B16-F10 tumor-bearing mice were euthanized with 5% isoflurane (Forane, AbbVie, Budapest, Hungary; OGYI-T-1414/01). For the assessment of the radiotracer uptake, the radioactivity concentration (%ID/g tissue) of the selected organs was measured with a calibrated gamma counter (Perkin-Elmer Packard Cobra, Waltham, MA, USA) (Supplementary Material Table S1).
Series [4] can be described thus: in vivo. As to conditions: C57BL/6, mouse, iv, total radioactivity, SUVmean of the liver.
Experimental: Both normal control and B16-F10 tumorous mice were iv. administered with 6.8 ± 0.9 MBq [^68Ga]Ga-DOTAGA-LacN(NAP), [^68Ga]Ga-DOTAGA-LacN(NAP)-cRGDfK, or [^68Ga]Ga-DOTAGA-cRGDfK in 120 μL saline through the lateral tail vein.
The nature of series [5]: in vivo. Conditions: C57BL/6, mouse, iv, total radioactivity.
Experimental: as §1
Where [6] appears, read: ex vivo biodistribution: bone (femur).
The mark [7] stands for this setting: ex vivo biodistribution: kidney.
The mark [8] stands for this setting: ex vivo biodistribution: large intestine.
Setting [9] is: ex vivo biodistribution: muscle.
Where [10] appears, read: ex vivo biodistribution: pancreas.
[11] abbreviates: ex vivo biodistribution: salivary glands.
[12] abbreviates: ex vivo biodistribution: small intestine.
The mark [13] stands for this setting: ex vivo biodistribution: spleen.
Where [14] appears, read: uptake in subcutaneous B16-F10 tumors.

SMILES strings stand for the structures.

Consider 3 compounds from PMC9695418, “The Synthesis and Preclinical Investigation of Lactosamine-Based Radiopharmaceuticals for the Detection of Galectin-3-Expressing Melanoma Cells” (Pharmaceutics, 2022).

As for `CC(=O)N[C@H]1C(O)O[C@H](CO)[C@@H](O[C@@H]2O[C@H](CO)[C@H](O)[C@H](O)[C@H]2O)[C@@H]1O` (stereo partly drawn) [N-acetyl-lactosamine], the “affinity for the CRD of galectin-3 compared to the lactose molecule” value in series [1] is listed as 5 fold.
As for `N=C(N)NCCC[C@@H]1NC(=O)[C@H](CCCCNC(=O)CCOCCOCCOCCOCCNC(=O)CCC(=O)N2Cc3ccccc3-c3c(nnn3CCCO[C@@H]3O[C@H](CO)[C@@H](O[C@@H]4O[C@H](CO)[C@H](O)[C@H](OCc5ccc6ccccc6c5)[C@H]4O)[C@H](O)[C@H]3NC(=S)Nc3ccc(CNC(=O)CCC(C(=O)O)N4CCN(CC(=O)O)CCN(CC(=O)O)CCN(CC(=O)O)CC4)cc3)-c3ccccc32)NC(=O)[C@@H](Cc2ccccc2)NC(=O)[C@H](CC(=O)O)NC(=O)CNC1=O` (stereo partly drawn) [[^68Ga]Ga-DOTAGA-LacN(NAP)-cRGDfK, metal not drawn], the tissue uptake at 100 min is 3.07 ± 2.1 %ID/g in series [2] (accumulation in the gall bladder); roughly 1.7 %ID/g in series [2] (accumulation in the intestines); 1.7 ± 0.71 %ID/g in series [2] (accumulation in the stomach); 0.58 ± 0.14 %ID/g in series [5] (ex vivo biodistribution: blood); 0.54 ± 0.21 %ID/g in series [5] (setting [6]); 0.06 ± 0.01 %ID/g in series [5] (ex vivo biodistribution: brain). Also, the tissue uptake at 100 min came to 0.17 ± 0.13 %ID/g in series [5] (ex vivo biodistribution: fat); 0.61 ± 0.17 %ID/g in series [5] (ex vivo biodistribution: heart); 6.14 ± 1.14 %ID/g in series [5] (setting [7]); 1.74 ± 0.7 %ID/g in series [5] (setting [8]); 2.19 ± 0.73 %ID/g in series [5] (ex vivo biodistribution: liver); 1.54 ± 0.62 %ID/g in series [5] (ex vivo biodistribution: lungs). Moreover, the tissue uptake at 100 min in series [5] (setting [9]) was 0.27 ± 0.07 %ID/g; in series [5] (setting [10]), 0.43 ± 0.12 %ID/g; in series [5] (setting [11]), 1.34 ± 0.5 %ID/g; in series [5] (setting [12]), 1.77 ± 0.96 %ID/g; in series [5] (setting [13]) it was 1.6 ± 1.17 %ID/g; in series [5] (setting [14]) it was 0.8 ± 0.23 %ID/g. Besides, the “B16-F10/Liver ratio (T/L)” value in series [3] was 0.45 ± 0.11. The “B16-F10/Muscle ratio (T/M)” value in series [3] is 3.43 ± 1.09. Further, the SUV at 80 min in series [4] is 1.25 ± 0.18 SUV.
Consider `N=C(N)NCCC[C@@H]1NC(=O)[C@H](CCCCNC(=S)Nc2ccc(CNC(=O)CCC(C(=O)O)N3CCN(CC(=O)O)CCN(CC(=O)O)CCN(CC(=O)O)CC3)cc2)NC(=O)[C@@H](Cc2ccccc2)NC(=O)[C@H](CC(=O)O)NC(=O)CNC1=O` (stereo partly drawn) [[^68Ga]Ga-DOTAGA-cRGDfK, metal not drawn], for which, in series [3], the “B16-F10/Liver ratio (T/L)” value is 0.35 ± 0.14. In series [3], the “B16-F10/Muscle ratio (T/M)” value turned out to be 4.54 ± 1.24. Besides, the SUV at 80 min in series [4] worked out at 0.59 ± 0.08 SUV. For the same compound, the tissue uptake at 100 min in series [5] (ex vivo biodistribution: blood) was 0.37 ± 0.05 %ID/g; in series [5] (setting [6]), 0.26 ± 0.04 %ID/g; in series [5] (ex vivo biodistribution: brain), 0.03 ± 0.01 %ID/g; in series [5] (ex vivo biodistribution: fat) it was 0.19 ± 0.08 %ID/g; in series [5] (ex vivo biodistribution: gall bladder), 0.84 ± 0.29 %ID/g; in series [5] (ex vivo biodistribution: heart), 0.26 ± 0.06 %ID/g. The tissue uptake at 100 min in series [5] (setting [7]) was 2.43 ± 0.26 %ID/g; in series [5] (setting [8]), 0.55 ± 0.16 %ID/g; in series [5] (ex vivo biodistribution: liver), 1 ± 0.25 %ID/g; in series [5] (ex vivo biodistribution: lungs), 0.66 ± 0.18 %ID/g; in series [5] (setting [9]) it was 0.1 ± 0.01 %ID/g; in series [5] (setting [10]), 0.18 ± 0.06 %ID/g. The tissue uptake at 100 min amounted to 0.54 ± 0.18 %ID/g in series [5] (setting [11]); 0.78 ± 0.2 %ID/g in series [5] (setting [12]); 0.8 ± 0.09 %ID/g in series [5] (setting [13]); 0.69 ± 0.21 %ID/g in series [5] (ex vivo biodistribution: stomach); 0.35 ± 0.12 %ID/g in series [5] (setting [14]).
